Changes are numbered by the printed parent chain.

For experiment [1], the target named is T1, CTLA4/His (human, UniProt P16410 36-161).
T1 construct: not shown: His tag
T1 sequence (looked up): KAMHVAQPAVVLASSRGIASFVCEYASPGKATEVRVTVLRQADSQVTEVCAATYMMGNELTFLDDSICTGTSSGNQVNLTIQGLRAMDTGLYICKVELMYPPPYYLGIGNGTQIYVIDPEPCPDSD
Kind of experiment: SPR (Biacore), untreated control of the oxidation pressure test, analyte CTLA4/His. (SPR reads the build-up and loss of mass on a sensor chip optically.)

For experiment [2], the target named is T2, CTLA-4 on the functional cells of the Promega anti-CTLA-4 blocking assay kit (UniProt P16410 36-223, limits assumed).
T2 sequence (looked up): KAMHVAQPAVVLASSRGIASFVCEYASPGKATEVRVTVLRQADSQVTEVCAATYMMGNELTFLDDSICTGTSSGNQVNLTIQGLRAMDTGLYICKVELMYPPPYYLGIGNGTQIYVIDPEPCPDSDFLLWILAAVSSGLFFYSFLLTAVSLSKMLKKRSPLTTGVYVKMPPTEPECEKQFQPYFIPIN
The experiment can be described thus: cell-based or functional assay.

The target in experiment [3] is T1, CTLA4/His. The experiment can be described thus: SPR, Biacore 8K, antibody captured on the chip, antigen as analyte, 1:1 binding model.
The target of experiment [4] is T1, CTLA4/His. Kind of experiment: SPR (Biacore), after AAPH oxidation, analyte CTLA4/His.
Experiment [5] deals with T3, human CTLA4-Fc recombinant protein (human, UniProt P16410 36-161).
T3 construct: not shown: Fc part
T3 sequence (looked up): T1 sequence (looked up)
The experiment can be described thus: kinetics of the prokaryotic expression product, analyte CTLA4/Fc, 1:1 binding model.

In experiment [6] the target is T1, CTLA4/His. Kind of experiment: SPR, Biacore 8K, antibody captured on the chip, antigen as analyte, 1:1 binding model; Table 4, analyte CTLA4/His; Rmax 38.2, Chi^2 5.48E-02.
Experiment [7] concerns the target T3, human CTLA4-Fc recombinant protein. Kind of experiment: kinetics of the prokaryotic expression product, analyte CTLA4/Fc, 1:1 binding model; prokaryotic expression product, analyte CTLA4/Fc (Table 2).
Experiment [8] concerns the target T1, CTLA4/His. The experiment can be described thus: SPR, Biacore 8K, antibody captured on the chip, antigen as analyte, 1:1 binding model; chimeric antibody, analyte CTLA4/His (Table 4).

B1: AH01674 humanized anti-human CTLA4 monoclonal antibody (human IgG1/kappa) (antibody, V domains shown)
VH: QVQLVQSGAEVKKPGASVKVSCKASGYTFTSYWINWVRQAPGQGLEWMGRIAPGSGTTYYNEMFTGRVTMTRDTSTSTAYMELSSLRSEDTAVYYCARGDYFDYWGQGTMVTVSS
VL: DIQLTQSPSFLSASVGDRVTITCSASKSVSYIHWYQQKPGKAPKLLIYDTSTLASGVPPRFSGSGSGPEFTLTISSLQPEDFATYYCQQRTTYPLTFGQGTKLEIK
notes: also called AH1674
B1: in the experiment with CTLA4/His [1], the dissociation constant Kd was 39.5 pM, the koff stood at 2.98e-05 s⁻¹ and the kon is 753000 M⁻¹ s⁻¹. The “EC50 (µg/ml), luciferase reporter, Promega anti-CTLA-4 blocking assay (CD80/CD86 aAPC/Raji cells with functional cells expressing CTLA-4)” value in experiment [2] was 1.11 µg/mL. In the experiment with CTLA4/His [3], the Kd is no more than 14.2 pM, the koff is no more than 1e-05 s⁻¹ and the kon worked out at 705000 M⁻¹ s⁻¹.

B2: AH01674 AAPH (AH01674 after the oxidation pressure test) (antibody, V domains shown)
VH: B1 VH
VL: B1 VL
modifications: Met 63 oxidised in 75.616% of the sample (AAPH, 40 C, 24 h)
notes: Human IgG1/kappa, treated with AAPH; also called AH01674 AAPH-24 h
As to B2, in the experiment with CTLA4/His [4], binding was put at a Kd of 30.5 pM, the off-rate constant (koff) amounted to 2.19e-05 s⁻¹ and the kon amounted to 719000 M⁻¹ s⁻¹.

B3: AH01696 (prokaryotic expression antibody product, 5BM library) (Fab, V domains shown)
VH: VQLVQSGAEVVKPGASVKVSCKASGYTFTSYWINWIRQAPGQGLEWIGRIAPGSGTTYYNEMFTGRVTLTRDTSTSTAYMELSSLRSEDTAVYYCARGDYFDYWDQGTMVTVSS
VL: B1 VL with Y35F, P59S, P68T, F70Y
notes: Prokaryotic expression product from Phage-Fab / FASEBA-Fab plasmids
On to B3, for which the Kd in experiment [5] was determined as 0.00373 pM.

B4: AH01696 humanized anti-human CTLA4 monoclonal antibody (human IgG1/kappa) (antibody, V domains shown)
VH: B3 VH
VL: B1 VL with Y35F, P59S, P68T, F70Y
B4: in the experiment with CTLA4/His [3], the Kd amounted to 42.9 pM, the off-rate constant (koff) was determined as 2.77e-05 s⁻¹ and the kon was 646000 M⁻¹ s⁻¹.

B5: AH01674 (prokaryotic expression antibody product, CBM library) (Fab, V domains shown)
VH: B1 VH
VL: B1 VL
notes: as for B3
For B5, the Kd in experiment [5] stood at 15.4 pM.

B6: AH01704 humanized anti-human CTLA4 monoclonal antibody (human IgG1/kappa) (antibody, V domains shown)
VH: B1 VH with K12V, R38K, M70L, Y95F
VL: B1 VL with P59S, P68T, F70Y
For B6, in the experiment with CTLA4/His [3], the Kd turned out to be 14.4 pM, the koff worked out at 1.12e-05 s⁻¹ and the kon was 780000 M⁻¹ s⁻¹.

B7: AH01695 humanized anti-human CTLA4 monoclonal antibody (human IgG1/kappa) (antibody, V domains shown)
VH: B1 VH with M70L, M81I, Y95F, R98I
VL: B1 VL with P59S, P68T
notes: also called AH1695
Consider B7, for which, in the experiment with CTLA4/His [1], the affinity, expressed as Kd, was 59.4 pM; the koff is 4.55e-05 s⁻¹; the kon came to 767000 M⁻¹ s⁻¹. The “EC50 (µg/ml), luciferase reporter, Promega anti-CTLA-4 blocking assay (CD80/CD86 aAPC/Raji cells with functional cells expressing CTLA-4)” value in experiment [2] turned out to be 5.46 µg/mL. Moreover, in the experiment with CTLA4/His [3], the dissociation constant Kd is no more than 15.3 pM, the koff is no more than 1e-05 s⁻¹ and the kon was 655000 M⁻¹ s⁻¹.

B8: AH01686 (prokaryotic expression antibody product, 5BM library) (Fab, V domains shown)
VH: B1 VH with K12V, V37I, R38K, M48I, M70L, M81I, Y95F
VL: B1 VL with P59S, P68T
notes: as for B3
For the molecule B8, the Kd in experiment [5] came to 0.0433 pM.

B9: AH01695 (prokaryotic expression antibody product, 5BM library) (Fab, V domains shown)
VH: B1 VH with M70L, M81I, Y95F, R98I
VL: B1 VL with P59S, P68T
notes: as for B3
In the case of B9, the Kd in experiment [5] was 0.0106 pM.

B10: AH01679 humanized anti-human CTLA4 monoclonal antibody (human IgG1/kappa) (antibody, V domains shown)
VH: B1 VH with K12V, V20L, M48I, A79V
VL: B1 VL with P59S, P68T
notes: also called AH1679
In the case of B10, in experiment [2], the “EC50 (µg/ml), luciferase reporter, Promega anti-CTLA-4 blocking assay (CD80/CD86 aAPC/Raji cells with functional cells expressing CTLA-4)” value was determined as 17.1 µg/mL. In the experiment with CTLA4/His [3], this molecule gave a Kd of no more than 13.4 pM, a koff of no more than 1e-05 s⁻¹ and a kon of 748000 M⁻¹ s⁻¹.

B11: AH01686 humanized anti-human CTLA4 monoclonal antibody (human IgG1/kappa) (antibody, V domains shown)
VH: B1 VH with K12V, V37I, R38K, M48I, M70L, M81I, Y95F
VL: B1 VL with P59S, P68T
B11: in the experiment with CTLA4/His [3], the affinity, expressed as Kd, was 38.8 pM; the koff was 3.18e-05 s⁻¹; the kon came to 820000 M⁻¹ s⁻¹.

B12: AH01653 (prokaryotic expression antibody product, CBM library) (Fab, V domains shown)
VH: B1 VH with Q3H, R38K, G106D
VL: B1 VL with P59S, F70Y, Q99G
Take B12: the dissociation constant Kd in experiment [5] turned out to be 14.9 pM.

B13: AH01704 (prokaryotic expression antibody product, 5BM library) (Fab, V domains shown)
VH: B1 VH with K12V, R38K, M70L, Y95F
VL: B1 VL with P59S, P68T, F70Y
notes: as for B3
As to B13, the Kd in experiment [5] worked out at 0.019 pM.

B14: AH01672 humanized anti-human CTLA4 monoclonal antibody (human IgG1/kappa) (antibody, V domains shown)
VH: B1 VH with R38K, G106D
VL: B1 VL with T71S, Q99G
notes: also called AH1672
Consider B14, for which the “EC50 (µg/ml), luciferase reporter, Promega anti-CTLA-4 blocking assay (CD80/CD86 aAPC/Raji cells with functional cells expressing CTLA-4)” value in experiment [2] is 7.31 µg/mL. In addition, in the experiment with CTLA4/His [3], the Kd was no more than 14.5 pM and the koff is no more than 1e-05 s⁻¹. The molecule further came in with a kon with CTLA4/His [6] of 690000 M⁻¹ s⁻¹.

B15: AH01679 (prokaryotic expression antibody product, 5BM library) (Fab, V domains shown)
VH: B1 VH with K12V, V20L, M48I, A79V
VL: B1 VL with P59S, P68T
notes: as for B3
Regarding B15, the koff in experiment [7] was less than 1e-05 s⁻¹. Further, the Kd in experiment [5] came to 0.0431 pM.

B16: AH01695 AAPH (AH01695 after the oxidation pressure test) (antibody, V domains shown)
VH: B1 VH with M70L, M81I, Y95F, R98I
VL: B1 VL with P59S, P68T
modifications: Met 63 oxidised in 70.898% of the sample; Met 250 (constant region of the heavy chain) oxidised in 26.143% (AAPH, 40 C, 24 h)
notes: Human IgG1/kappa, treated with AAPH; also called AH01695 AAPH-24 h
In the experiment with CTLA4/His [4], B16 came in with a Kd of 131 pM, a koff of 8.75e-05 s⁻¹ and a kon of 670000 M⁻¹ s⁻¹.

B17: AH01672 (prokaryotic expression antibody product, CBM library) (Fab, V domains shown)
VH: B1 VH with R38K, G106D
VL: B1 VL with T71S, Q99G
notes: as for B3
Turning to B17, the equilibrium dissociation constant (Kd) in experiment [5] amounted to 14.5 pM.

B18: Chimeric antibody (antibody, V domains shown)
VH: QVHLQQSGDVLVKPGASVNLSCKASGYTFTSYWINWIKQRPGQGLEWIGRIAPGSGTTYYNEMFTGKATLTVVTSSTTAYIQLSSLSFEDSAVYFCARGDYFDYWDQGTTLTVSS
VL: QIVLTQSPAIMSASPGGKVTITCSASKSVSYIHWFQQKPGTSPKLLIYDTSTLASGVPPRFSGSGSGPSYSLTISRMEAEDAATYYCQQRTTYPLTFGGGTKLEVR
notes: also called Chimeric IgG
Take B18: the koff with CTLA4/His [8] was no more than 1e-05 s⁻¹; with CTLA4/His [1], 8.16e-06 s⁻¹. Also, the figures for the Kd in the experiment with CTLA4/His [1] and with CTLA4/His [3] were 21.9 pM and no more than 23 pM, respectively. Further, the kon stood at 372000 M⁻¹ s⁻¹ with CTLA4/His [1] and 434000 M⁻¹ s⁻¹ in the experiment with CTLA4/His [3]. Besides, the “EC50 (µg/ml), luciferase reporter, Promega anti-CTLA-4 blocking assay (CD80/CD86 aAPC/Raji cells with functional cells expressing CTLA-4)” value in experiment [2] is 3.96 µg/mL.

B19: Chimeric antibody AAPH (chimeric antibody after the oxidation pressure test) (antibody, V domains shown)
VH: B18 VH
VL: B18 VL
modifications: Met 63 oxidised in 62.144% of the sample (AAPH, 40 C, 24 h)
notes: Same protein as the chimeric antibody, treated with AAPH; also called Chimeric antibody AAPH-24 h
B19: in the experiment with CTLA4/His [4], the Kd was 48.7 pM, the koff was 2.78e-05 s⁻¹ and the kon came out at 570000 M⁻¹ s⁻¹.

As usually defined, the Kd is a measure of binding affinity in units of concentration. For orientation: koff means a measure of how fast the partners let go of each other. A word on the kon: it is a measure of how fast the partners come together.

Values taken from patent US20210301021A1 (NANJING GENSCRIPT BIOTECH, published 2021).
